How the values were obtained:
[1] = RP-HPLC and HPCE stability analyses of insulin standards and insulin compositions, Example 1; type: physicochemical; conditions: stored at room temperature
Description: This mixture was then divided in half, half of which was stored at 4° C., and the other half stored at room temperature.

[2] = RP-HPLC and HPCE stability analyses of insulin standards and stable insulin compositions, Example 2; type: physicochemical; conditions: stored at room temperature
[3] = Dispersion and stability of somatotropin in phosphatidylcholine; type: physicochemical; conditions: 85% phosphatidylcholine with lipoic acid and ascorbyl palmitate
Description: (§1) A drug delivery composition formulated with somatotropin was formulated in one trial with 85% phosphatidylcholine to which lipoic acid and ascorbyl palmitate were added.

[4] = Skin penetration after topical application of the somatotropin composition; type: in vivo; conditions: composition topically applied
Description: as §1

| Substance | time at which denaturing started (RP-HPLC and HPCE) [1] [days] | time at which denaturing started (RP-HPLC and HPCE) [2] [week] | dispersion in phosphatidylcholine [3] | stability in phosphatidylcholine [3] | skin penetration [4] |
| --- | --- | --- | --- | --- | --- |
| insulin standards: Insulin in 0.01 N HCl: 1 mg/ml Sigma insulin (Example 1), 5 mg/ml (Example 2) | ≤ 7 | ≤ 1 |  |  |  |
| Somatotropin: Somatotropin (pituitary growth hormone) formulated with 85% phosphatidylcholine, lipoic acid and ascorbyl palmitate |  |  | readily dispersed | remained stable | penetrate the skin well |

— patent US20100311696A1, “TOPICAL SKIN TREATMENT COMPOSITION” (priority 2002, published 2010)
